Data published in the supplement of paper PMC7125110.
± gives the standard error. This sample holds only a part of the variants without activity.

B1: glmS ribozyme (parent)
chain: AUAAAAGCGCCAGAACUACAGAAAUGUAGUUGACGAGGAGGAGGUUUAUCGAAUUUUCGGCGGAUGCCUCCAAA

Tests used:
Settings in all cases: with glucosamine-6-phosphate
[1] = variants of: B1; experiment: self-cleavage kobs at 40 uM GlcN6P; higher = faster cleavage; RNA array
In short: (§1)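 Tiles bearing barcoded ribozyme variants, transcribed in situ by E. coli RNA polymerase on sequenced MiSeq chips, were imaged over ~14 h at 37 °C using a hybridised Cy3 probe. Glucosamine-6-phosphate was supplied at 40 μM to 10 mM in HEPES/KCl/Mg(OAc)2 buffer. kobs came from one- or two-exponential decay fits to normalised per-tile medians, and weighted Michaelis–Menten fits then provided kcat and KM.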

[2] = variants of: B1; experiment: self-cleavage kobs at 10000 uM GlcN6P; higher = faster cleavage; RNA array
In short: as §1

[3] = variants of: B1; experiment: self-cleavage kobs at 160 uM GlcN6P; higher = faster cleavage; RNA array
In short: as §1

[4] = variants of: B1; experiment: self-cleavage kobs at 640 uM GlcN6P; higher = faster cleavage; RNA array
In short: as §1

[5] = variants of: B1; experiment: self-cleavage kobs at 2500 uM GlcN6P; higher = faster cleavage; RNA array
In short: as §1

| Variant | self-cleavage kobs at 40 uM GlcN6P [1] | self-cleavage kobs at 10000 uM GlcN6P [2] | self-cleavage kobs at 160 uM GlcN6P [3] | self-cleavage kobs at 640 uM GlcN6P [4] | self-cleavage kobs at 2500 uM GlcN6P [5] |
| --- | --- | --- | --- | --- | --- |
| C16U A33G | < 1e-05 s⁻¹ | < 1e-05 s⁻¹ | – | – | – |
| C50G A53C C67G | 7.76e-05 ± 2.5e-05 s⁻¹ | 5.98e-05 ± 1.9e-05 s⁻¹ | 0.000121 ± 2.6e-05 s⁻¹ | 0.000198 ± 6.2e-05 s⁻¹ | 0.000336 ± 0.00012 s⁻¹ |
| C10G G51C C58A | < 1e-05 s⁻¹ | < 1e-05 s⁻¹ | – | < 1e-05 s⁻¹ | – |
| G9A C58U C61G | < 1e-05 s⁻¹ | < 1e-05 s⁻¹ | – | – | – |
| C10A C61A C67G | 4.33e-05 ± 1.9e-05 s⁻¹ | – | – | – | – |
| G32C U45C C58G G59U | < 1e-05 s⁻¹ | – | – | – | – |
| A12G A14C G60C | – | – | < 1e-05 s⁻¹ | < 1e-05 s⁻¹ | – |
| U30A G44A | < 1e-05 s⁻¹ | 4.03e-05 ± 8.7e-06 s⁻¹ | < 1e-05 s⁻¹ | – | – |
| A52U G63C | < 1e-05 s⁻¹ | < 1e-05 s⁻¹ | < 1e-05 s⁻¹ | < 1e-05 s⁻¹ | – |
| A6G C58U U65C | – | – | < 1e-05 s⁻¹ | – | < 1e-05 s⁻¹ |
| A15G G63C | < 1e-05 s⁻¹ | < 1e-05 s⁻¹ | < 1e-05 s⁻¹ | < 1e-05 s⁻¹ | < 1e-05 s⁻¹ |
| C11G A14C | < 1e-05 s⁻¹ | – | < 1e-05 s⁻¹ | – | – |
| G32U G43C | < 1e-05 s⁻¹ | – | < 1e-05 s⁻¹ | < 1e-05 s⁻¹ | < 1e-05 s⁻¹ |
| G32U G43U | – | – | < 1e-05 s⁻¹ | – | < 1e-05 s⁻¹ |
| G51C A52U | < 1e-05 s⁻¹ | < 1e-05 s⁻¹ | – | < 1e-05 s⁻¹ | – |
| G9U C34A G35C G43U | < 1e-05 s⁻¹ | – | – | – | < 1e-05 s⁻¹ |
| A15C G35U A36G U65C C68A | < 1e-05 s⁻¹ | < 1e-05 s⁻¹ | – | – | – |
| U30A G35A G51A G60U | < 1e-05 s⁻¹ | < 1e-05 s⁻¹ | – | – | – |
| A33C G40C | < 1e-05 s⁻¹ | – | < 1e-05 s⁻¹ | < 1e-05 s⁻¹ | – |
| G9U A39U C68U | < 1e-05 s⁻¹ | – | – | – | – |
| C10U A20G U55C | – | – | < 1e-05 s⁻¹ | – | – |
| C8U U65C | < 1e-05 s⁻¹ | – | – | < 1e-05 s⁻¹ | < 1e-05 s⁻¹ |
| G29C U31A U46A A53C C71U | < 1e-05 s⁻¹ | – | – | – | – |
| G37A A39U A42G C50U | < 1e-05 s⁻¹ | < 1e-05 s⁻¹ | – | < 1e-05 s⁻¹ | – |
| A33C G51A | < 1e-05 s⁻¹ | < 1e-05 s⁻¹ | – | – | < 1e-05 s⁻¹ |
